# Values quoted from earlier work in article PMC8031367.
# Target: Cys403 (UniProt position 403, RPVIHCRAGVG)
# Assay: chemical modification
substance,measurement,value
"YopH (Yersinia protein tyrosine phosphatase) (Yersinia pestis (as stated for YopH in this article; the title of the cited source, ref 59, says only 'Yersinia'))",pKa,4.67
